Laboratory results as given in the supplement of paper PMC5998384.

What was measured:
HeLa Kyoto [1] = experiment: solubility in G1/S (NP-40 vs SDS abundance) (log2 ratio); higher = more soluble; conditions: cell cycle stage: G1/S
HeLa Kyoto [2] = experiment: solubility change mitosis vs G1/S (difference of NP-40 vs SDS log2 ratios) (log2 ratio difference); higher = more soluble in mitosis
HeLa Kyoto [3] = experiment: thermal stability score vs G1/S (z-score of summed log2 fold changes over temperatures); higher = more thermally stable than in G1/S
[4] = cell cycle stage: early G1 (4.5 h after nocodazole release)
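For solubility change mitosis vs G1/S (difference of NP-40 vs SDS log2 ratios) in this document: synchronized HeLa Kyoto cells (double thymidine block for G1/S, nocodazole release for mitosis), protein amounts in NP-40 versus SDS lysates quantified by mass spectrometry, three biological replicates.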
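For solubility in G1/S (NP-40 vs SDS abundance) in this document: HeLa Kyoto cells arrested at G1/S by double thymidine block, proteins quantified by TMT10plex mass spectrometry in mild NP-40 versus SDS extracts, three biological replicates.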
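For thermal stability score vs G1/S (z-score of summed log2 fold changes over temperatures) in this document: synchronized HeLa Kyoto cells, proteins quantified by TMT10plex mass spectrometry, three biological replicates, mitosis taken 0.5 h after nocodazole release, G1/S directly after double thymidine block.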

| Substance | solubility in G1/S (log2) (HeLa Kyoto [1]) | solubility change mitosis (log2) (HeLa Kyoto [2]) | thermal stability score (HeLa Kyoto [3]; [4]) | thermal stability score (HeLa Kyoto [3]; cell cycle stage: mitosis) |
| --- | --- | --- | --- | --- |
| MKAGATSMWASCCGLLNEVMGTGAVRGQQSAFAGATGPFRFTPNPEFSTYPPAATEGPNIVCKACGLSFSVFRKKHVCCDCKKDFCSVCSVLQENLRRCSTCHLLQETAFQRPQLMRLKVKDLRQYLILRNIPIDTCREKEDLVDLVLCHHGLGSEDDMDTSSLNSSRSQTSSFFTRSFFSNYTAPSATMSSFQGELMDGDQTSRSGVPAQVQSEITSANTEDDDDDDDEDDDDEEENAEDRNPGLSKERVRASLSDLSSLDDVEGMSVRQLKEILARNFVNYSGCCEKWELVEKVNRLYKENEENQKSYGERLQLQDEEDDSLCRICMDAVIDCVLLECGHMVTCTKCGKRMSECPICRQYVVRAVHVFKS [RNF34] | 0.0303 | -0.0561 | 0.687 | 0.834 |
| BLM | -0.848 | 0.632 | -0.277 | -0.894 |
| MEGQSSRGSRRPGTRAGLGSLPMPQGVAQTGAPSKVDSSFQLPAKKNAALGPSEPRLALAPVGPRAAMSASSEGPRLALASPRPILAPLCTPEGQKTATAHRSSSLAPTSVGQLVMSASAGPKPPPATTGSVLAPTSLGLVMPASAGPRSPPVTLGPNLAPTSRDQKQEPPASVGPKPTLAASGLSLALASEEQPPELPSTPSPVPSPVLSPTQEQALAPASTASGAASVGQTSARKRDAPAPRPLPASEGHLQPPAQTSGPTGSPPCIQTSPDPRLSPSFRARPEALHSSPEDPVLPRPPQTLPLDVGQGPSEPGTHSPGLLSPTFRPGAPSGQTVPPPLPKPPRSPSRSPSHSPNRSPCVPPAPDMALPRLGTQSTGPGRCLSPNLQAQEAPAPVTTSSSTSTLSSSPWSAQPTWKSDPGFRITVVTWNVGTAMPPDDVTSLLHLGGGDDSDGADMIAIGLQEVNSMLNKRLKDALFTDQWSELFMDALGPFNFVLVSSVRMQGVILLLFAKYYHLPFLRDVQTDCTRTGLGGYWGNKGGVSVRLAAFGHMLCFLNCHLPAHMDKAEQRKDNFQTILSLQQFQGPGAQGILDHDLVFWFGDLNFRIESYDLHFVKFAIDSDQLHQLWEKDQLNMAKNTWPILKGFQEGPLNFAPTFKFDVGTNKYDTSAKKRKPAWTDRILWKVKAPGGGPSPSGRKSHRLQVTQHSYRSHMEYTVSDHKPVAAQFLLQFAFRDDMPLVRLEVADEWVRPEQAVVRYRMETVFARSSWDWIGLYRVGFRHCKDYVAYVWAKHEDVDGNTYQVTFSEESLPKGHGDFILGYYSHNHSILIGITEPFQISLPSSELASSSTDSSGTSSEGEDDSTLELLAPKSRSPSPGKSKRHRSRSPGLARFPGLALRPSSRERRGASRSPSPQSRRLSRVAPDRSSNGSSRGSSEEGPSGLPGPWAFPPAVPRSLGLLPALRLETVDPGGGGSWGPDREALAPNSLSPSPQGHRGLEEGGLGP [INPP5J] | 0.0932 | -0.115 | 0.193 | 0.518 |
| MWKRSEQMKIKSGKCNMAAAMETEQLGVEIFETADCEENIESQDRPKLEPFYVERYSWSQLKKLLADTRKYHGYMMAKAPHDFMFVKRNDPDGPHSDRIYYLAMSGENRENTLFYSEIPKTINRAAVLMLSWKPLLDLFQATLDYGMYSREEELLRERKRIGTVGIASYDYHQGSGTFLFQAGSGIYHVKDGGPQGFTQQPLRPNLVETSCPNIRMDPKLCPADPDWIAFIHSNDIWISNIVTREERRLTYVHNELANMEEDARSAGVATFVLQEEFDRYSGYWWCPKAETTPSGGKILRILYEENDESEVEIIHVTSPMLETRRADSFRYPKTGTANPKVTFKMSEIMIDAEGRIIDVIDKELIQPFEILFEGVEYIARAGWTPEGKYAWSILLDRSQTRLQIVLISPELFIPVEDDVMERQRLIESVPDSVTPLIIYEETTDIWINIHDIFHVFPQSHEEEIEFIFASECKTGFRHLYKITSILKESKYKRSSGGLPAPSDFKCPIKEEIAITSGEWEVLGRHGSNIQVDEVRRLVYFEGTKDSPLEHHLYVVSYVNPGEVTRLTDRGYSHSCCISQHCDFFISKYSNQKNPHCVSLYKLSSPEDDPTCKTKEFWATILDSAGPLPDYTPPEIFSFESTTGFTLYGMLYKPHDLQPGKKYPTVLFIYGGPQVQLVNNRFKGVKYFRLNTLASLGYVVVVIDNRGSCHRGLKFEGAFKYKMGQIEIDDQVEGLQYLASRYDFIDLDRVGIHGWSYGGYLSLMALMQRSDIFRVAIAGAPVTLWIFYDTGYTERYMGHPDQNEQGYYLGSVAMQAEKFPSEPNRLLLLHGFLDENVHFAHTSILLSFLVRAGKPYDLQIYPQERHSIRVPESGEHYELHLLHYLQENLGSRIAALKVI [DPP8] | -0.288 | -0.0129 | -0.204 | 0.0056 |
| MAVSERRGLGRGSPAEWGQRLLLVLLLGGCSGRIHQLALTGEKRADIQLNSFGFYTNGSLEVELSVLRLGLREAEEKSLLVGFSLSRVRSGRVRSYSTRDFQDCPLQKNSSSFLVLFLINTKDLQVQVRKYGEQKTLFIFPGLLPEAPSKPGLPKPQATVPRKVDGGGTSAASKPKSTPAVIQGPSGKDKDLVLGLSHLNNSYNFSFHVVIGSQAEEGQYSLNFHNCNNSVPGKEHPFDITVMIREKNPDGFLSAAEMPLFKLYMVMSACFLAAGIFWVSILCRNTYSVFKIHWLMAALAFTKSISLLFHSINYYFINSQGHPIEGLAVMYYIAHLLKGALLFITIALIGSGWAFIKYVLSDKEKKVFGIVIPMQVLANVAYIIIESREEGASDYVLWKEILFLVDLICCGAILFPVVWSIRHLQDASGTDGKVAVNLAKLKLFRHYYVMVICYVYFTRIIAILLQVAVPFQWQWLYQLLVEGSTLAFFVLTGYKFQPTGNNPYLQLPQEDEEDVQMEQVMTDSGFREGLSKVNKTASGRELL [GPR108] | 0.04 | -0.16 | -3.36 | -3.48 |
